Laboratory results from patent publication US20250026850A1 (TRISHULA THERAPEUTICS, published 2025).
Positions count from the first letter of the chain named.

Legend:
[1] = biological target: T1, cynomolgus macaque (Macaca fascicularis) CD39 on cells (cynomolgus macaque (Macaca fascicularis), UniProt P49961 7-510 (human entry)); test: flow cytometry, 100 nM IgG, cCD39-CHO cells; MFI ratio to parental CHO
T1 construct: CHO cells engineered to express cyno CD39, or primary cyno B cells and monocytes; also called cyno CD39; cCD39
T1 chain: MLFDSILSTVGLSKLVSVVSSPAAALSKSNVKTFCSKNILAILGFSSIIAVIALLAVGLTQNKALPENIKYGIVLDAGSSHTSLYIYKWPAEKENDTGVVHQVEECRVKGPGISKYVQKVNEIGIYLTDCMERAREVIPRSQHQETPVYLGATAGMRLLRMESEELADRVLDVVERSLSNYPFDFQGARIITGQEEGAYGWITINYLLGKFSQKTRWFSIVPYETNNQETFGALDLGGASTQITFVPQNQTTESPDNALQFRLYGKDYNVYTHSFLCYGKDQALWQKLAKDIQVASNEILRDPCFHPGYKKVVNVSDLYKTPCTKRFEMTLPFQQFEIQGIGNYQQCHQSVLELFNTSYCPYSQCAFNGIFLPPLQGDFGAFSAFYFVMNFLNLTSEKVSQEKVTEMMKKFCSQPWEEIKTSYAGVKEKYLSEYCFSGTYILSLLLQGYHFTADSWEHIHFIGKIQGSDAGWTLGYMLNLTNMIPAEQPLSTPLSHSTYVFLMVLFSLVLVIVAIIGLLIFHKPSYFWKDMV
Protocol: (§1) 100 nanomolar IgGs (each antibody is indicated as a unique clone number in the FIG.) were incubated at […] 30 minutes on ice in phosphate buffered saline (PBS) with parental CHO cells or CHO cells engineered to express either human or cynomolgus macaque (Macaca fascicularis) CD39 (CHO CD39 cells). Cells were then washed with ice cold PBS and incubated with a fluorescently labeled goat-anti-human IgG for 20 minutes on ice. Cells were washed and resuspended in ice cold PBS prior to analysis by flow cytrometry.

[2] = biological target: T2, rhCD39-ECD-His (R&D Systems) (human, UniProt P49961 38-478); test: BLI (Octet), IgG on anti-human Fc sensor, rhCD39-ECD-His 10-300 nM, 1:1 fit
T2 construct: Bought protein; that entry runs on through the C-terminal transmembrane and cytoplasmic residues; also called recombinant human CD39 extracellular domain; soluble recombinant human CD39 (ENTDP1) ECD; not shown: His tag
T2 sequence: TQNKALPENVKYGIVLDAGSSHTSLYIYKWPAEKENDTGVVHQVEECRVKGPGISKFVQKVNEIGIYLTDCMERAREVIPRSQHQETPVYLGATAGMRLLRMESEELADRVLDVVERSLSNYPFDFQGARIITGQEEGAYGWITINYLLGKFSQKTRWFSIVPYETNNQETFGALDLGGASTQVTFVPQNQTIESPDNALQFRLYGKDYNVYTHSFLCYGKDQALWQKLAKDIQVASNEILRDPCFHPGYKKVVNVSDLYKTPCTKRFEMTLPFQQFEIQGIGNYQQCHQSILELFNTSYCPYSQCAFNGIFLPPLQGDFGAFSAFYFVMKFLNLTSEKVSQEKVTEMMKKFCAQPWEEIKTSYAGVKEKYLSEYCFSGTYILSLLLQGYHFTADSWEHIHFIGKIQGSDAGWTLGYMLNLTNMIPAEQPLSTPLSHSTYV
Protocol: The kinetic data was globally fit with a simple 1:1 Langmuir binding model to yield on-rate (kon) and off-rate (koff) values. The equilibrium dissociation constants (KD) were calculated from the kon and koff values.
Binding kinetics were measured using the Octet Red96 system (ForteBio) at 25° C. in running buffer (1× Pall ForteBio Kinetics Buffer diluted into PBS or Tris pH 7.4). […] After a short baseline step in running buffer, the sensors were exposed to varying concentrations (10-300 nM) of rhCD39-ECD-His (R&D Systems) for the association step. Dissociation of the complex was monitored upon exposure of the sensors to running buffer once again. Data was processed using ForteBio Octet software with baseline subtraction, global fit and 1:1 binding model to obtain association and dissociation rates. KD was calculated from the ratio of kd to kₐ.

human CD39 on cells = biological target: T3, human CD39 on cells (human, UniProt P49961 1-510); test: flow cytometry, 100 nM IgG, hCD39-CHO cells; MFI ratio to parental CHO
T3 construct: One molecule for all cells that carry human CD39; the cell is named under assay; also called hCD39; cellular CD39
T3 sequence: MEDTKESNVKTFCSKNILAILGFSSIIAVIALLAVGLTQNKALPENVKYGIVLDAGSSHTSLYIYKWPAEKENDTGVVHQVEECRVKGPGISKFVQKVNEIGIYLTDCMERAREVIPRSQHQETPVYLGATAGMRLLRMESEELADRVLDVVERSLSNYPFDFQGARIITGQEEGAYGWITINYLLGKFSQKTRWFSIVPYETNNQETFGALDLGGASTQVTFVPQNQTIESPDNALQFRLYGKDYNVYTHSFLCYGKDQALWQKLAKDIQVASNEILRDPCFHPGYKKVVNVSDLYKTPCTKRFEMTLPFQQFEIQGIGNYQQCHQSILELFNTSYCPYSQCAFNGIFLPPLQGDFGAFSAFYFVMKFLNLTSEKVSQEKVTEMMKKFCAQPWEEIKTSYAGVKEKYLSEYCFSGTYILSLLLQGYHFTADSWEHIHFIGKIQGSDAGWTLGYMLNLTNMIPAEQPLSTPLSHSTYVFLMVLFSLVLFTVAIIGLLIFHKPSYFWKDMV
Protocol: as §1

B1: 27536 (antibody, V domains shown)
VH: QVQLVQSGAEVKKPGSSVKVSCKASGGTFSNYAISWVRQAPGQGLEWMGGIIPIFGTANYAQKFQGRVTITADESTSTAYMELSSLRSEDTAVYYCARDTLYSSGAYYGYNVWGQGTMVTVSS
VL: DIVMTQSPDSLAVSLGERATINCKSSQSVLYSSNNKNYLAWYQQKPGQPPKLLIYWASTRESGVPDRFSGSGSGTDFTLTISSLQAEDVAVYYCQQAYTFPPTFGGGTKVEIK
With B1 the “Cell Binding (FOB)” value [1] was 113 FOB, the Kd [2] was 114 nM and the koff [2] was 0.00751 s⁻¹. For the same binder, the kon [2] was 65900 M⁻¹ s⁻¹ and the “Cell Binding (FOB)” value (human CD39 on cells) was 89 FOB.

B2: 27568 (antibody, V domains shown)
VH: QVQLVQSGAEVKKPGSSVKVPCKASGGTFSSYAISWVRQAPEQGLEWMGSIIPIFGTANYAQKFQGRVTITADESTSTAYMELSSLRSEDTAVYYCAGESGGYRDHKLDVWGQGTVVTVSS
VL: EIVLTQSPATLSLSPGERATLSCRASQSVSSYLAWYQQKPGQAPRLLIYDASNRATGIPARFSGSGSGTDFTLTISSLEPEDFAVYYCQQSVFWPITFGGGTKVEIKR
With B2 the “Cell Binding (FOB)” value [1] was 260 FOB, the Kd [2] was 173 nM and the koff [2] was 0.047 s⁻¹. The kon [2] was 272000 M⁻¹ s⁻¹ and the “Cell Binding (FOB)” value (human CD39 on cells) was 267 FOB.

B3: 27535 (antibody, V domains shown)
VH: QVQLVQSGAEVKKPGSSVKVSCKASGGTFSSYAISWVRQAPGQGLEWMGGIIPIFGTANYAQKFQGRVTITADESTSTAYMELSSLRSEDTAVYYCARDTPRWRYHYFDYWGQGTLVTVSS
VL: B2 VL with N53K, S91V, V92L, F93N, W94Y, I96L
B3 was tested, and the “Cell Binding (FOB)” value [1] was 738 FOB and the “Cell Binding (FOB)” value (human CD39 on cells) was 301 FOB.

B4: 27587 (antibody, V domains shown)
VH: B2 VH with P21S, E42G, G98R, V116M
VL: B2 VL with N53K, S91D, F93L, I96L
With B4 the “Cell Binding (FOB)” value [1] was 1400 FOB, the Kd [2] was 33.7 nM and the koff [2] was 0.00711 s⁻¹. For the same binder, the kon [2] was 211000 M⁻¹ s⁻¹ and the “Cell Binding (FOB)” value (human CD39 on cells) was 1450 FOB.

B5: 27549 (antibody, V domains shown)
VH: QVQLVESGGGVVQPGRSLRLSCAASGFTFSSYGMNWVRQAPGKGLEWVAVIWYDGSNKYYADSVKGRFTISRDNSKNTLYLQMNSLRAEDTAVYYCARDLGGYSYGEPYYYYYGMDVWGQGTTVTVSS
VL: EIVLTQSPGTLSLSPGERATLSCRASQSVSSDYLAWYQQKPGQAPRLLIYGASSRATGIPDRFSGSGSGTDFTLTISRLEPEDFAVYYCQQAHSSPYTFGGGTKVEIKR
With B5 the “Cell Binding (FOB)” value [1] was 566 FOB and the “Cell Binding (FOB)” value (human CD39 on cells) was 822 FOB.

B6: 31896 (antibody, V domains shown)
VH: QVQLVQSGAEVKKPGSSVKVSCKASGGTFSKLAISWVRQAPGQGLEWMGGIGFGTANYAQKFQGRVTITADESASTAYMELSSLRSEDTAVYYCARGGAKYASTHGMDVWGQGTTVTVSS
VL: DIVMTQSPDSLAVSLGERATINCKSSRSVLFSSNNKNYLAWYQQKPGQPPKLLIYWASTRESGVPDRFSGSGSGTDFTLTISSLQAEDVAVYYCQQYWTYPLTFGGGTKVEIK
In the case of B6, the “Cell Binding (FOB)” value [1] is reported as 4540 FOB, the Kd [2] is reported as 9.05 nM and the koff [2] is reported as 0.00815 s⁻¹. The kon [2] was 901000 M⁻¹ s⁻¹ and the “Cell Binding (FOB)” value (human CD39 on cells) was 1040 FOB.

B7: 31915 (antibody, V domains shown)
VH: B6 VH with K31S, A33P, A74T, T104K, H105W
VL: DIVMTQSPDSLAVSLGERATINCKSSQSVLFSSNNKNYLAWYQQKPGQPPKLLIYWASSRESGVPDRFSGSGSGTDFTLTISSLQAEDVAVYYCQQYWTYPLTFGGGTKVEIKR
For B7, the “Cell Binding (FOB)” value [1] was 4580 FOB, the Kd [2] was 0.811 nM and the koff [2] was 0.000286 s⁻¹. The kon [2] was 353000 M⁻¹ s⁻¹ and the “Cell Binding (FOB)” value (human CD39 on cells) was 1090 FOB.

B8: 27579 (antibody, V domains shown)
VH: QVQLVQSGAEVKEPGASVKVSCKAPGYTFTSYYMHWVRQAPGQGLEWMGVINPSGGSTSYAQKFQGRVTMTRDTSTSTVYMELSSLRSEDTAVYYCARGKREGGTEYLRHWGQGTLVTVSS
VL: EIVLTQSPGTLSLSPGERATLSCRASQSVSSSYLAWYQQKPGQAPRLLIYGASSRATGIPDRFSGSGSGTDFTLTISRLEPEDFAVYYCQQYHSYITFGGGTKVEIK
In the case of B8, the “Cell Binding (FOB)” value [1] is reported as 2670 FOB and the “Cell Binding (FOB)” value (human CD39 on cells) is reported as 1950 FOB.

B9: 31418 (antibody, V domains shown)
VH: B8 VH with E13K, P25S, T30K, Y33E, V50R, S59W
VL: EIVLTQSPGTLSLSPGERATLSCRASQSVSSSYLAWYQQKPGQAPRLLIYGASSRATGIPDRFSGSGSGTDFTLTISRLEPEDFAVYYCQQYYFYITFGGGTKVEIKR
B9 was tested, and the “Cell Binding (FOB)” value [1] was 3180 FOB and the “Cell Binding (FOB)” value (human CD39 on cells) was 1080 FOB.

B10: 31414 (antibody, human IgG4 S228P, kappa, V domains shown)
VH: B8 VH with E13K, P25S, T30K, Y33E, V50R, G55V, S59W, H110N
VL: B9 VL with Y93H, F94S
In the case of B10, the “Cell Binding (FOB)” value [1] is reported as 3570 FOB and the “Cell Binding (FOB)” value (human CD39 on cells) is reported as 1240 FOB.

B11: 31430 (antibody, V domains shown)
VH: B8 VH with E13K, P25S, T30K, Y33E, V50R, S59W
VL: B9 VL with R24E, S31Y, T57N, Y93H, F94S, Y95A, I96L
In the case of B11, the “Cell Binding (FOB)” value [1] is reported as 3570 FOB and the “Cell Binding (FOB)” value (human CD39 on cells) is reported as 1220 FOB.

B12: 31429 (antibody, V domains shown)
VH: B8 VH with E13K, P25S, T30V, Y33F, V50S, S54R
VL: B8 VL with S28Y, G51Y, S54N, Y95G
For B12, the “Cell Binding (FOB)” value [1] was 3800 FOB and the “Cell Binding (FOB)” value (human CD39 on cells) was 1290 FOB.

B13: 31415 (antibody, V domains shown)
VH: B8 VH with E13K, P25S, Y33Q, V50R, S59W, H110S
VL: B9 VL with Y93H, F94S
With B13 the “Cell Binding (FOB)” value [1] was 3360 FOB and the “Cell Binding (FOB)” value (human CD39 on cells) was 1170 FOB.

B14: 29872 (antibody, V domains shown)
VH: B8 VH with E13K, P25S, T30K, Y33E, V50R, G55V, S59W
VL: B8 VL
For B14, the “Cell Binding (FOB)” value [1] was 4190 FOB and the “Cell Binding (FOB)” value (human CD39 on cells) was 1450 FOB.

B15: 31431 (antibody, V domains shown)
VH: B8 VH with E13K, P25S, Y33Q, V50R, S59W
VL: B8 VL with S30A, S54N, A56H, S94G, Y95G
For B15, the “Cell Binding (FOB)” value [1] was 3530 FOB and the “Cell Binding (FOB)” value (human CD39 on cells) was 1240 FOB.

B16: 31891 (antibody, V domains shown)
VH: B8 VH with E13K, P25S, T28I, T30K, Y33E, V50R, G55V, S59W, H110V
VL: B9 VL with G51Y, T57Y, Y93H, F94N, Y95A
For B16, the “Cell Binding (FOB)” value [1] was 4650 FOB and the “Cell Binding (FOB)” value (human CD39 on cells) was 1030 FOB.
